In the RNAGym collection of RNA variant scans (doi:10.7554/elife.90254):

B1: LINE1-full (parent)
chain: UACGUAGGUGGUUUUCCCCUGAUAGUGCUAAGGGGGCCUGGAAGUUUGGACUGGGCAGAGCUCAACACAGCGUGGCAAAGUGGCUGUGGCUAGACUGCCUCUCUGGAUUCCUCGUCACUCAGCAGGGCAUCUCUGAGAGAAAUGCC

Variants of: B1
Assay: self-cleavage, relative activity (ratio to wild type); higher = more cleavage; in vitro, sequencing; the parent is a self-cleaving ribozyme

Row | Variant | self-cleavage
1 | UACGUAGGUGGUUUUCCCCUGAUAGUGCUAAGGGCGCCUGGAAGUUUGGACUGGGCAGAGCUCAACACAGCGUGGCAAAGUGGCUGUGGCUAGACUGCCUCUCUGGAUUCCUCGUCACUCAGCAGGGCAUCUCUGAGAGAAAGGCC [G35C U143G] | 0.86
2 | UACGUAGGUGGUUUUCCCCUGAUAGUGCUAAGGGUGCCUGGAAGUUUGGACUGGGCAGAGCUCAACACAGCGUGGCAAAGUGGCUGUGGCUAGACUGCCUCUCUGGAUUCCUCGUCACUCAGCAGGGCAUCUCUGAGAGAAAUGCC [G35U] | 1.22
3 | UACGUAGGUGGUUUUCCCCUGAUAGUGCUAAGGGUGCCUGGAUGUUUGGACUGGGCAGAGCUCAACACAGCGUGGCAAAGUGGCUGUGGCUAGACUGCCUCUCUGGAUUCCUCGUCACUCAGCAGGGCAUCUCUGAGAGAAAUGCC [G35U A43U] | 1.33
4 | UACGUAGGUGGUUUUCCCCUGAUAGUGCUAAGGGUGCCUGGAAGUUUGGUCUGGGCAGAGCUCAACACAGCGUGGCAAAGUGGCUGUGGCUAGACUGCCUCUCUGGAUUCCUCGUCACUCAGCAGGGCAUCUCUGAGAGAAAUGCC [G35U A50U] | 0.57
5 | UACGUAGGUGGUUUUCCCCUGAUAGUGCUAAGGGUGCCUGGAAGUUUGGACUGGGCAGAGCUCAUCACAGCGUGGCAAAGUGGCUGUGGCUAGACUGCCUCUCUGGAUUCCUCGUCACUCAGCAGGGCAUCUCUGAGAGAAAUGCC [G35U A65U] | 0.12
6 | UACGUAGGUGGUUUUCCCCUGAUAGUGCUAAGGGUGCCUGGAAGUUUGGACUGGGCAGAGCUCAACACGGCGUGGCAAAGUGGCUGUGGCUAGACUGCCUCUCUGGAUUCCUCGUCACUCAGCAGGGCAUCUCUGAGAGAAAUGCC [G35U A69G] | 0.6
7 | UACGUAGGUGGUUUUCCCCUGAUAGUGCUAAGGGUGCCUGGAAGUUUGGACUGGGCAGAGCUCAACACAGCGUGGCUAAGUGGCUGUGGCUAGACUGCCUCUCUGGAUUCCUCGUCACUCAGCAGGGCAUCUCUGAGAGAAAUGCC [G35U A77U] | 1.31
8 | UACGUAGGUGGUUUUCCCCUGAUAGUGCUAAGGGUGCCUGGAAGUUUGGACUGGGCAGAGCUCAACACAGCGUGGCAAGGUGGCUGUGGCUAGACUGCCUCUCUGGAUUCCUCGUCACUCAGCAGGGCAUCUCUGAGAGAAAUGCC [G35U A79G] | 1.22
9 | UACGUAGGUGGUUUUCCCCUGAUAGUGCUAAGGGUGCCUGGAAGUUUGGACUGGGCAGAGCUCAACACAGCGUGGCAAAGUGGCUGUGGCUAGACUGCCUCUCUGGAUUCCUCGUCUCUCAGCAGGGCAUCUCUGAGAGAAAUGCC [G35U A117U] | 1.04
10 | UACGUAGGUGGUUUUCCCCUGAUAGUGCUAAGGGUGCCUGGAAGUUUGGACUGGGCAGAGCUCAACACAGCGUGGCAAAGUGGCUGUGGCUAGACUGCCUCUCUGGAUUCCUCGUCACUCAGCGGGGCAUCUCUGAGAGAAAUGCC [G35U A124G] | 0.68
11 | UACGUAGGUGGUUUUCCCCUGAUAGUGCUAAGGGUGCCUGGAAGUUUGGACUGGGCAGAGCUCAACACAGCGUGGCAAAGUGGCUGUGGCUAGACUGCCUCUCUGGAUUCCUCGUCACUCAGCAGGGCGUCUCUGAGAGAAAUGCC [G35U A129G] | 1.57
12 | UACGUAGGUGGUUUUCCCCUGAUAGUGCUAAGGGUGCCUGGAAGUUUGGACUGGGCAGAGCUCAACACAGCGUGGCAAAGUGGCUGUGGCUAGACUGCCUCUCUGGAUUCCUCGUCACUCAGCAGGGCAUCUCUGAGGGAAAUGCC [G35U A138G] | 1.47
13 | UACGUAGGUGGUUUUCCCCUGAUAGUGCUAAGGGUGCCUGGAAGUUUGGACUGGGCAGAGCUCAACACAGCGUGGCAAAGUGGCUGUGGCUAGACUGCCUCUCUGGAUUCCUCGUCACUCAGCAGGGCAUCUCUGAGAGAGAUGCC [G35U A141G] | 1.09
14 | UACGUAGGUGGUUUUCCCCUGAUAGUGCUAAGGGUGCCUGGAAGUUUGGACUGGGCAGAGCUCAACACAGCGUGGCAAAGUGGCUGUGGCUAGACUGCCUCUCUGGAUUCCUCGUCACUCAGCAGGGCAUCUCUGAGAGAAGUGCC [G35U A142G] | 1.56
15 | UACGUAGGUGGUUUUCCCCUGAUAGUGCUAAGGGUGCCUGGAAGUUUGGACUGGGCAGAGCUCAACACAGCGUGGCAAAGUGGCUGUGGCUAGACUGCCUCUCUGGAUUCCUCGUCACUCAGCAGGGCAUCUCUGAGAGAAAUGUC [G35U C145U] | 1.21
16 | UACGUAGGUGGUUUUCCCCUGAUAGUGCUAAGGGUGCCUAGAAGUUUGGACUGGGCAGAGCUCAACACAGCGUGGCAAAGUGGCUGUGGCUAGACUGCCUCUCUGGAUUCCUCGUCACUCAGCAGGGCAUCUCUGAGAGAAAUGCC [G35U G40A] | 0.85
17 | UACGUAGGUGGUUUUCCCCUGAUAGUGCUAAGGGUGCCUGGAAGUUUGGACUGGUCAGAGCUCAACACAGCGUGGCAAAGUGGCUGUGGCUAGACUGCCUCUCUGGAUUCCUCGUCACUCAGCAGGGCAUCUCUGAGAGAAAUGCC [G35U G55U] | 0.72
18 | UACGUAGGUGGUUUUCCCCUGAUAGUGCUAAGGGUGCCUGGAAGUUUGGACUGGGCAGAGCUCAACACAGCGUAGCAAAGUGGCUGUGGCUAGACUGCCUCUCUGGAUUCCUCGUCACUCAGCAGGGCAUCUCUGAGAGAAAUGCC [G35U G74A] | 1.22
19 | UACGUAGGUGGUUUUCCCCUGAUAGUGCUAAGGGUGCCUGGAAGUAUGGACUGGGCAGAGCUCAACACAGCGUGGCAAAGUGGCUGUGGCUAGACUGCCUCUCUGGAUUCCUCGUCACUCAGCAGGGCAUCUCUGAGAGAAAUGCC [G35U U46A] | 1.07
